# Laboratory results: patent publication US20100021448
# Where a chain is given by its changes, count along the chain named.
# T1: I-CreI variant RRN (R44, R68, N70, N75)
# T1 chain: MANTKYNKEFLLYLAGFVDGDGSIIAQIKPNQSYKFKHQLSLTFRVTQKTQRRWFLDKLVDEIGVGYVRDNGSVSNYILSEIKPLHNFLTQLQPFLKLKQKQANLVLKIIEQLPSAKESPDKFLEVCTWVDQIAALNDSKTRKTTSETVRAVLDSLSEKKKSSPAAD
# B1: I-CreI variant DRN (D44, R68, N70, N75) (protein)
# chain: T1 chain with R45D
# Molecular target: T1, I-CreI variant RRN (R44, R68, N70, N75)
protein,measurement,value
B1,cleavage of chimeric DNA targets on co-expression,no cleavage of chimeric targets could be detected by co-expression of the same weak mutants
